The target of data set [1] is T1, LST-1 19-98 (Caenorhabditis elegans, UniProt P91820 19-98).
T1 sequence: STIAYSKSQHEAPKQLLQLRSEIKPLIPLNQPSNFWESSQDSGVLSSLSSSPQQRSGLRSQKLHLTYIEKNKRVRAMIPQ
As to the kind of experiment: EMSA; 10 uM LST-1 19-98; nonspecific intermediate band, seen with FBF-2 present; EMSA: 5 nM RNA, 10 mM HEPES pH 7.4, 75 mM NaCl, 0.01% Tween 20, 0.1 mg/ml BSA, 0.1 mg/ml yeast tRNA, 2 mM DTT, 4 C overnight. To be noted: protein: recombinant; tags: His6-SUMO removed by Ulp1; GST removed by TEV when coexpressed; label: 3'-Cy5. (In general: In EMSA bound probe runs differently from free probe, usually more slowly.)

Data set [2] has as its target T2, FBF-2 RBD+CT;LST-1 19-98 (Caenorhabditis elegans;Caenorhabditis …, UniProt Q09312;P91820 164-632;19-98, |).
T2 sequence 1: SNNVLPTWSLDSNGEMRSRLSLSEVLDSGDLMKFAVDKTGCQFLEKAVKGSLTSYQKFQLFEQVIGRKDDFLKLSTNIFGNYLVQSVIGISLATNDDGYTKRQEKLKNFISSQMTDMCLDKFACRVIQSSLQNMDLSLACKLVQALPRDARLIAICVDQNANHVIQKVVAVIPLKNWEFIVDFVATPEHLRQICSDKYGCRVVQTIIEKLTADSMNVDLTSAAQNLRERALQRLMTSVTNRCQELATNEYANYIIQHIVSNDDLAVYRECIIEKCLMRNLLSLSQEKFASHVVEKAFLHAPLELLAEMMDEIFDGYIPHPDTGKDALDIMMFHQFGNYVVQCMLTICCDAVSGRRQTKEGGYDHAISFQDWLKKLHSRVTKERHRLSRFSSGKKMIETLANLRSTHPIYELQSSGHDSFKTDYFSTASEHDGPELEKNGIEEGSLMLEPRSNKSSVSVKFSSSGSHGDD
T2 sequence 2: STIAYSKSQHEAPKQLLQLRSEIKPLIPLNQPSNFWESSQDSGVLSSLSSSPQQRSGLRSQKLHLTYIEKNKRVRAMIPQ
As to the kind of experiment: EMSA; 10 uM LST-1 19-98; apparent Kd; EMSA: 5 nM RNA, 10 mM HEPES pH 7.4, 75 mM NaCl, 0.01% Tween 20, 0.1 mg/ml BSA, 0.1 mg/ml yeast tRNA, 2 mM DTT, 4 C overnight. The conditions noted are these: protein: recombinant;recombinant; tags: His6-SUMO, removed by Ulp1;His6-SUMO removed by Ulp1; GST removed by TEV when coexpressed; chain copies: 2;1; label: 3'-Cy5.

In data set [3] the target is T3, FBF-2 RBD;LST-1 19-98 (Caenorhabditis elegans;Caenorhabditis …, UniProt Q09312;P91820 164-575;19-98, |).
T3 sequence 1: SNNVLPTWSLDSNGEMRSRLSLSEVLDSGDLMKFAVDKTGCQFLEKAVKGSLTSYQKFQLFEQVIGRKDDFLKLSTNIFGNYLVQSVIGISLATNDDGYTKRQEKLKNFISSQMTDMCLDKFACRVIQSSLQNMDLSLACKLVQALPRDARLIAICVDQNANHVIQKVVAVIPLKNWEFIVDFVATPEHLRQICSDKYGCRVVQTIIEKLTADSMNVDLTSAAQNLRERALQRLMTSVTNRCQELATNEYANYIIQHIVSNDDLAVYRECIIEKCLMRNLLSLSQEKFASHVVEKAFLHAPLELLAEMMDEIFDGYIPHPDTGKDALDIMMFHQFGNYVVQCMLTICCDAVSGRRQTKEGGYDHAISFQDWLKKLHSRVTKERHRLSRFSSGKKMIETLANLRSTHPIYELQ
T3 sequence 2: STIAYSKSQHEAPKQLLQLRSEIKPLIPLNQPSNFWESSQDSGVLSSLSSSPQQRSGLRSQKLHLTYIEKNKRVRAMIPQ
The data set is described as above. The conditions noted are these: protein: recombinant;recombinant; tags: His-SUMO, removed by TEV;His6-SUMO removed by Ulp1; GST removed by TEV when coexpressed; chain copies: 2;1; label: 3'-Cy5.

In data set [4] the target is T4, FBF-2 RBD+CT (Caenorhabditis elegans, UniProt Q09312 164-632).
T4 sequence: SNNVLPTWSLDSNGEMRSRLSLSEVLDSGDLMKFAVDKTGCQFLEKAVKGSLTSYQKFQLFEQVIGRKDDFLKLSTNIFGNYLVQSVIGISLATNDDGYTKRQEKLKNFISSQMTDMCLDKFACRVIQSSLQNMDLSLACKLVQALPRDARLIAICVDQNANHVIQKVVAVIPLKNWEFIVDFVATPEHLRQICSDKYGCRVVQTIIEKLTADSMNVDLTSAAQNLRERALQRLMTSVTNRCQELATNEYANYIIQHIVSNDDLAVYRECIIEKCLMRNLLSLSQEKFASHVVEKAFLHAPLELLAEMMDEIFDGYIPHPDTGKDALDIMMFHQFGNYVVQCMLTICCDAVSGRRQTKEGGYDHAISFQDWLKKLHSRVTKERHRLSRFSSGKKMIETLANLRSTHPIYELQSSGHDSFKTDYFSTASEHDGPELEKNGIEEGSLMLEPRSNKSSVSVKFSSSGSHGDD
As to the kind of experiment: EMSA; apparent Kd, Hill fit; EMSA: 5 nM RNA, 10 mM HEPES pH 7.4, 75 mM NaCl, 0.01% Tween 20, 0.1 mg/ml BSA, 0.1 mg/ml yeast tRNA, 2 mM DTT, 4 C overnight. To be noted: protein: recombinant; tags: His6-SUMO, removed by Ulp1; label: 3'-Cy5.

Data set [5] concerns the target T5, FBF-2 RBD (Caenorhabditis elegans, UniProt Q09312 164-575).
T5 sequence: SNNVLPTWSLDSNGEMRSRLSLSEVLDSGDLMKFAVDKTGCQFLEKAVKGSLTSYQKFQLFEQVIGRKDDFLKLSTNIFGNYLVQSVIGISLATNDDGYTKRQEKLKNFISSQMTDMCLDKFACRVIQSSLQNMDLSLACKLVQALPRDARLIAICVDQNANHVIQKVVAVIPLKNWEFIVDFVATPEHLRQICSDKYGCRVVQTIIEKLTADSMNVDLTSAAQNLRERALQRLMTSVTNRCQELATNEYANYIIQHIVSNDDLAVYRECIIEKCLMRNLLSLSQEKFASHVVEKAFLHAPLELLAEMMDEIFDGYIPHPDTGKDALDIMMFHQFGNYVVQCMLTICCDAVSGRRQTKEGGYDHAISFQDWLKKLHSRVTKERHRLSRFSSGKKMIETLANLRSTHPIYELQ
Described as above. To be noted: protein: recombinant; tags: His-SUMO, removed by TEV; label: 3'-Cy5.

Data set [6] deals with T6, FBF-2 RBD+CT L610A (Caenorhabditis elegans, UniProt Q09312 164-632, L610A).
T6 sequence: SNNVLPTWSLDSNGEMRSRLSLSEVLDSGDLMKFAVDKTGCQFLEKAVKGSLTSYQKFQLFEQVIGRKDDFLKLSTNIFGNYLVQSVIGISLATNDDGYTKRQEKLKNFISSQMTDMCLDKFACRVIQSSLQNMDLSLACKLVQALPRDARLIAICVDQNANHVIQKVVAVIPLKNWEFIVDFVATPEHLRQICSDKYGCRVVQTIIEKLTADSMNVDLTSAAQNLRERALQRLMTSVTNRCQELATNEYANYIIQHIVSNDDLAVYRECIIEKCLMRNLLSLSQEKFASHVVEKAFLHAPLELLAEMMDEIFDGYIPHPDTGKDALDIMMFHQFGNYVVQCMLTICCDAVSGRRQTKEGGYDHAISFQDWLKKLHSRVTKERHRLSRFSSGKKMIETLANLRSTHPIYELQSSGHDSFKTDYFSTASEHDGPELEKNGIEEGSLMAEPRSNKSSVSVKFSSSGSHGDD
The description is as above. To be noted: protein: recombinant; label: 3'-Cy5.

B1: gld-1 FBEa-FBEa* (EMSA) (ssRNA)
RNA: AUCAUGUGCCAUACAUCAUGUUGCCAUUU
As for B1, the binding result in data set [1] is “binds”. In addition, the Kd came out at 109 ± 2 nM in data set [2]; 107 ± 3 nM in data set [3]; 435 ± 25 nM in data set [4]; 131 ± 10 nM in data set [5]; 80 ± 11 nM in data set [6].

These data come from article PMC11696143, “A higher order PUF complex is central to regulation of C. elegans germline stem cells” (Nature Communications, 2024).
